Consider one molecule from PMC10991328, “A distal enhancer guides the negative selection of toxic glycoalkaloids during tomato domestication”.

This data set addresses MYC2-GST (Solanum lycopersicum (MicroTom), UniProt A0A3Q7HRZ6 1-689). Briefly: EMSA; strong binding; 20-40 ng protein; EMSA: 10 mM Tris-HCl pH 7.2, 50 mM KCl, 1 mM DTT, 2.5% glycerol, 0.05% NP-40, 50 ng/uL poly(dI-dC), room temperature, 20 min; pull-down: 10 mM HEPES pH 7.9, 100 mM KCl, 5 mM MgCl2, 10% glycerol, 1 mM DTT, 0.5% NP-40, 4 C overnight. The settings on record: protein: recombinant; tags: GST (pGEX-4T-1); chain copies: 2; label: 3'-biotin; blunt. Background: Mobility shift assays separate free from complexed probe on a gel.

Chain of MYC2-GST (A0A3Q7HRZ6 whole entry): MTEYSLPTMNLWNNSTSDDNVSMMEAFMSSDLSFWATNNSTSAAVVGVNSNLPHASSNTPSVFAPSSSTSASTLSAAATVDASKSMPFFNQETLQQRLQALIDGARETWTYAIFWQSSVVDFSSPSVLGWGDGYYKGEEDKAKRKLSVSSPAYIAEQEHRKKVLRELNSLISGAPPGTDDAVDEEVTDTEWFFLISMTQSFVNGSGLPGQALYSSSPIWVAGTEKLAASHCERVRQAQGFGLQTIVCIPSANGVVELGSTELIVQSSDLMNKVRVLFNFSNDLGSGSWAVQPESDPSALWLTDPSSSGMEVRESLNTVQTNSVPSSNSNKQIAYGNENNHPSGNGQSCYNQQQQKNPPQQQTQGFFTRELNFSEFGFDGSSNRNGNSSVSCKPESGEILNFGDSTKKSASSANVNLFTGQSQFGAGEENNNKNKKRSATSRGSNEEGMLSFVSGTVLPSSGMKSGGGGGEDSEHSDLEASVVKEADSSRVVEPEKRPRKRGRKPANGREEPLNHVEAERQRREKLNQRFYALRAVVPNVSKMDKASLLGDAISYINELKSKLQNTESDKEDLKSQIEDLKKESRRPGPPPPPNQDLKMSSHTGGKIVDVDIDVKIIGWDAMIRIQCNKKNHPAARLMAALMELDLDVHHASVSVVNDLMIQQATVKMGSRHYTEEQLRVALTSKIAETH

B1: GE1-1 probe (dsDNA)
DNA 1: ATGTATGTGTCTAATCAAACATCGGTGGCATAATTTTTTTTAGCATCAAA
DNA 2: TTTGATGCTAAAAAAAATTATGCCACCGATGTTTGATTAGACACATACAT
Consider B1, for which the binding result was “binds”.
